Laboratory results as given in ChEMBL document CHEMBL1153925, “Synthesis, characterization and biological activity of ring-substituted 6-benzylamino-9-tetrahydropyran-2-yl and 9-tetrahydrofuran-2-ylpurine derivatives” (Bioorg Med Chem, 2009).

Assays:
Details in all cases: Zea mays
[1] = substrate: c1ccc(CNc2ncnc3[nH]cnc23)cc1
[2] = substrate: NCc1ccc(O)cc1
[3] = substrate: c1ccc(CNc2ncnc3c2ncn3C2CCCCO2)cc1
[4] = substrate: Oc1ccc(CNc2ncnc3c2ncn3C2CCCCO2)cc1
[5] = substrate: COc1ccc(CNc2ncnc3c2ncn3C2CCCCO2)cc1
[6] = substrate: Oc1cccc(CNc2ncnc3c2ncn3C2CCCCO2)c1
[7] = substrate: O[C@@H]1[C@H](O)[C@H](O)CO[C@H]1n1cnc2c(NCc3ccccc3)ncnc21
[8] = substrate: COc1cccc(CNc2ncnc3c2ncn3C2CCCCO2)c1
[9] = substrate: CC(C)=CCNc1ncnc2[nH]cnc12
[10] = substrate: Oc1cccc(CNc2ncnc3nc[nH]c23)c1
[11] = substrate: COc1cccc(CN)c1
[12] = substrate: COc1ccc(CN)cc1
[13] = substrate: c1ccc(CNc2ncnc3[nH]cnc23)cc1; remark: listed apart in the source
[14] = substrate: c1ccc(CNc2ncnc3c2ncn3C2CCCCO2)cc1; remark: listed apart in the source
[15] = substrate: Oc1ccc(CNc2ncnc3c2ncn3C2CCCCO2)cc1; remark: listed apart in the source
[16] = substrate: Oc1cccc(CNc2ncnc3c2ncn3C2CCCCO2)c1; remark: listed apart in the source
[17] = molecular target: 6-(4-hydroxybenzylamino)purine
[18] = substrate: CC(C)=CCNc1ncnc2[nH]cnc12; remark: listed apart in the source
[19] = substrate: Oc1cccc(CNc2ncnc3nc[nH]c23)c1; remark: listed apart in the source
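Wherever Km is given: zea mays CKX1 produced in Pichia pastoris, enzyme activity followed as aldehyde formation detected with the 4-aminophenol method.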

B1: Cytokinin dehydrogenase 1 (Zea mays), Q9T0N8 (protein)
chain: MAVVYYLLLAGLIACSHALAAGTPALGDDRGRPWPASLAALALDGKLRTDSNATAAASTDFGNITSALPAAVLYPSSTGDLVALLSAANSTPGWPYTIAFRGRGHSLMGQAFAPGGVVVNMASLGDAAAPPRINVSADGRYVDAGGEQVWIDVLRASLARGVAPRSWNDYLYLTVGGTLSNAGISGQAFRHGPQISNVLEMDVITGHGEMVTCSKQLNADLFDAVLGGLGQFGVITRARIAVEPAPARARWVRFVYTDFAAFSADQERLTAPRPGGGGASFGPMSYVEGSVFVNQSLATDLANTGFFTDADVARIVALAGERNATTVYSIEATLNYDNATAAAAAVDQELASVLGTLSYVEGFAFQRDVAYAAFLDRVHGEEVALNKLGLWRVPHPWLNMFVPRSRIADFDRGVFKGILQGTDIVGPLIVYPLNKSMWDDGMSAATPSEDVFYAVSLLFSSVAPNDLARLQEQNRRILRFCDLAGIQYKTYLARHTDRSDWVRHFGAAKWNRFVEMKNKYDPKRLLSPGQDIFN
[1]
  Km: 29.6 µM
  kcat: 0.225 s⁻¹
[2]
  Km: 5.5 µM
  kcat: 0.871 s⁻¹
[3]
  Km: 98.9 µM
  kcat: 0.069 s⁻¹
[4]
  Km: 33.8 µM
  kcat: 0.195 s⁻¹
[5]
  kcat: 0.256 s⁻¹
[6]
  Km: 125 µM
  kcat: 0.032 s⁻¹
[7]
  kcat: 0.218 s⁻¹
[8]
  kcat: 0.006 s⁻¹
[9]
  Km: 1.8 µM
  kcat: 0.208 s⁻¹
[10]
  Km: 24.4 µM
  kcat: 0.244 s⁻¹
[11]
  kcat: 0.145 s⁻¹
[12]
  kcat: 0.476 s⁻¹
[13]
  kcat/Km: 0.0076
[14]
  kcat/Km: 0.0007
[15]
  kcat/Km: 5800 M⁻¹ s⁻¹
[16]
  kcat/Km: 0.0003
[17]
  kcat/Km: 0.158
[18]
  kcat/Km: 0.116
[19]
  kcat/Km: 0.01
